In patent US20250206839A1, “METHODS, COMPOSITIONS AND USES FOR SEMA7A MONOCLONAL ANTIBODIES” (THE REGENTS OF THE UNIVERSITY OF COLORADO, A BODY CORPORATE, priority 2022, published 2025):

Test system: activated T cells in the tumors
Assay: Flow cytometry of immune cells in treated tumors
Format: in vivo, mouse
Conditions: IFNg and TNFa on CD8+ T cells
Method: For initial in vivo studies with SmABHI. SEMA7A OE E0771 mouse mammary carcinoma cells were injected into mice. Twenty days after carcinoma cells were injected. SmAbH1 (e.g., 12 ug) was administered intraperitoneally to the mice every three days until day 36 post-carcinoma cell injection. Tissues were collected at day 36. Tumors, lungs, and LNs were harvested and processed for IHC and flow cytometry to determine the effect of SEMA7A mAb therapy on cells of the tumor microenvironment (TME). In an additional experiment, tumors were treated at day 28 post-injection with a novel SEMA7A directed antibody, monoclonal antibody clone H1. Fully regressed tumors were removed from treatment at day 50) and the animals were re-challenged with an additional tumor inoculation at day 90 to assess SEMA7A mAb effects. […]
Tumors were separated from the mammary gland and placed in six-well plates with 2 mL of Click's media without mercaptoethanol or L-glutamine (Irvine Scientific, Santa Ana, CA), where they were minced with scalpels, digested with 500 units/ml collagenase type II and IV and 20 μg/ml DNase (Worthington Biochemical Corporation, Lakewood, NJ) and incubated for 1 h at 37° C. […] Geometric mean fluorescence intensity (gMFI) was calculated with FlowJo software. […] Cells were then stained with CD8, CD45, CD4, Gating was determined based on unstimulated controls. […]

B1: SmAbH1: mouse monoclonal antibody against SEMA7A generated using the 10-mer immunizing peptide … (SEQ ID NO: 2) (antibody, V domains shown)
VH: QVKLQESGTVLARPGASVKMSCKASVYSFTSYWMHWVKQRPGQGLEWIGAIYPGNSDTSYNQKFKGKAKLTAVTSASTAYMELSSLTNEDSAVYYCTRGGAPTMITAYYAMDYWGQGTSVTVSS
VL: DIQMTQTTSSLSASLGDRVTISCRASQDISNYLNWYQQKPDGTVKLLIYYTSRLHSGVPSRFSGSGSGTDYSLTISNLEQEDIATYFCQQGNTLPWTFGGGTKLEIKR
  activated T cells in the tumors: increased presence of activated T cells
